Measured values published in patent US10562947B2, “Compositions and methods for preventing or treating diseases, conditions or processes characterized by aberrant fibroblast proliferation and extracellular matrix deposition” (MOERAE MATRIX, INC., priority 2011, dated 2020).

Key:
Assay in all cases: Kinase Profiling Assay
Assay type in all cases: biochemical
Conditions in all cases: 100 μM peptide
SAPK3(h) = molecular target: T1, SAPK3(h) (Homo sapiens, UniProt P53778)
T1 sequence (P53778 1-367): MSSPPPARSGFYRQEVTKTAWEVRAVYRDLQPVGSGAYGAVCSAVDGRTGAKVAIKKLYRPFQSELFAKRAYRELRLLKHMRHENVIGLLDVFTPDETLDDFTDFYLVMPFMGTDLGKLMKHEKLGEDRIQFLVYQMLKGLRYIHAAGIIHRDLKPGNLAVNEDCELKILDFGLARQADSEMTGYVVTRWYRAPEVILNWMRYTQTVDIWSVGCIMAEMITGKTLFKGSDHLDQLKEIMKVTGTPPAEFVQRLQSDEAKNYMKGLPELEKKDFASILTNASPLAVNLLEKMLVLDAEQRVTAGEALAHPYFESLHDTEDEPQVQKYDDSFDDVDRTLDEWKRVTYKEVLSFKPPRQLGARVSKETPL
Procedure, shortened: (§1)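 Specificity of the MK2-directed peptides is examined by measuring activity of 266 human kinases, every determination performed in duplicate.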

FGFR1(h) = FGFR1(h) (Homo sapiens, UniProt P11362)
Procedure, shortened: as §1

Rsk1(h) = molecular target: T2, Rsk1(h) (Homo sapiens, UniProt Q15418)
T2 construct: purchased Millipore (IC50 Profiler Express service)
Procedure, shortened: as §1

SGK3(h) = molecular target: T3, SGK3(h) (Homo sapiens, UniProt Q96BR1)
T3 sequence (Q96BR1 1-496): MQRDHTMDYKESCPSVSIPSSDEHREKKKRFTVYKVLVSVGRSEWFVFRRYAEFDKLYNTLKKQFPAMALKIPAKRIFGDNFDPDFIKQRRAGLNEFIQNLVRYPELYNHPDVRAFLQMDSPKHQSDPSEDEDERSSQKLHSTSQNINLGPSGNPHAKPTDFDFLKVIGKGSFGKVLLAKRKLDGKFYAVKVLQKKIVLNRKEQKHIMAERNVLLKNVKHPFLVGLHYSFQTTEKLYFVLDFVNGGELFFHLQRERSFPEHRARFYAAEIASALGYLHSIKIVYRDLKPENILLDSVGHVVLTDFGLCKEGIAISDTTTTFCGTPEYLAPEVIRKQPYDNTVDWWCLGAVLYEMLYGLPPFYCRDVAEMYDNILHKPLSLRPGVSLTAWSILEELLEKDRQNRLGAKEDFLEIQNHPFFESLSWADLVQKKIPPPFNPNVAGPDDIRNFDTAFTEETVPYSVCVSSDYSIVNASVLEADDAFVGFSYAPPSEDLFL
Procedure, shortened: as §1

WNK2(h) = WNK2(h) (Homo sapiens, UniProt Q9Y3S1)
Procedure, shortened: as §1

ULK2(h) = molecular target: T4, ULK2(h) (Homo sapiens, UniProt Q8IYT8)
T4 sequence (Q8IYT8 1-1036): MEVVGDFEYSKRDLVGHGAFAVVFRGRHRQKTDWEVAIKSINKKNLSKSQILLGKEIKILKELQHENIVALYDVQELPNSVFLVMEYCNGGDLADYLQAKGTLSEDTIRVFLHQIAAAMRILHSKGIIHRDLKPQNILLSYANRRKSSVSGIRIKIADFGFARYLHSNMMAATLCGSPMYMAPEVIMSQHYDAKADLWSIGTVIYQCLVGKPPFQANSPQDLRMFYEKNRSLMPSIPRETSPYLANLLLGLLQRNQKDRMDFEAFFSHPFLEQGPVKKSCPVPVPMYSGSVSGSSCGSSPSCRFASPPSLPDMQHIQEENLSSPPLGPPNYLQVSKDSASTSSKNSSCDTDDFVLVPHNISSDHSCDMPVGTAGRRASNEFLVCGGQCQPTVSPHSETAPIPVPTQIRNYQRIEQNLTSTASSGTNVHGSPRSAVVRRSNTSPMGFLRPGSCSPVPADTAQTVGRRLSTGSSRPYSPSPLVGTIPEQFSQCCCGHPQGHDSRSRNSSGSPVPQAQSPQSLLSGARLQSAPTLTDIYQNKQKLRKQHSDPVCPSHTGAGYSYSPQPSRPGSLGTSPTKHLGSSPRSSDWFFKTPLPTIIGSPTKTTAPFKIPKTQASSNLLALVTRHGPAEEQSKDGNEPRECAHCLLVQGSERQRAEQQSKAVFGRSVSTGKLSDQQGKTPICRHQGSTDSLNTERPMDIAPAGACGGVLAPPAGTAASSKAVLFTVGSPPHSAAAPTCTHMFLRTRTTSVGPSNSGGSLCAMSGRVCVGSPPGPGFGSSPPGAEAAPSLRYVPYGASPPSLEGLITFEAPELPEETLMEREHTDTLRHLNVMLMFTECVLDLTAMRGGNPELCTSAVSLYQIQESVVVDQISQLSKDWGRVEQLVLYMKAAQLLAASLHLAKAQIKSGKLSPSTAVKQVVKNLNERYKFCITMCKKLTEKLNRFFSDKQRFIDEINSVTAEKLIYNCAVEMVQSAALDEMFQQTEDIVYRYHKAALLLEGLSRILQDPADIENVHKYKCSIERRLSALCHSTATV
Procedure, shortened: as §1

MARK1(h) = MARK1(h) (Homo sapiens, UniProt Q9P0L2)
Procedure, shortened: as §1

TLK2(h) = TLK2(h) (Homo sapiens, UniProt Q86UE8)
Procedure, shortened: as §1

MARK1(h), sequence (Q9P0L2 whole entry): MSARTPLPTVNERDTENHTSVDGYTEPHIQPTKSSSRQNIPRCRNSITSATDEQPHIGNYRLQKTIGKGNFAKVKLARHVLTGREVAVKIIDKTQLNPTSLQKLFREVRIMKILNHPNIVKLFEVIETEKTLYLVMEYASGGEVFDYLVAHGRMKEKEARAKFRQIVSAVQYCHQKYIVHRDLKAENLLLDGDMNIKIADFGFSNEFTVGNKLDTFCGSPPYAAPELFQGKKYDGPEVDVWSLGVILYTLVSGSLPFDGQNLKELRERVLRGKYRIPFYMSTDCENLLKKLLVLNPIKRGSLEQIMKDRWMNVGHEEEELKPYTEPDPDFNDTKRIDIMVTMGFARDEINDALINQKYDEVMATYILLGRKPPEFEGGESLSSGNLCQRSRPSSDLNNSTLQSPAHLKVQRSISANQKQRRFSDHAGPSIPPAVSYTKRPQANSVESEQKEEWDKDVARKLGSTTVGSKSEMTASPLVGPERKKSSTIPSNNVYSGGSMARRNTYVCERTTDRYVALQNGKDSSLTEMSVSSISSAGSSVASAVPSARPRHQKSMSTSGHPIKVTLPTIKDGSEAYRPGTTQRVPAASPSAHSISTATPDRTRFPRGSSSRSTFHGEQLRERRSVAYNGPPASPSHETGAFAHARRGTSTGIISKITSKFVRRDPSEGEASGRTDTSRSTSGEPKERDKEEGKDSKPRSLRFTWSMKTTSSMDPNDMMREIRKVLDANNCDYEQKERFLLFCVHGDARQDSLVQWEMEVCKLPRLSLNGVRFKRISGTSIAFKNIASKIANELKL
TLK2(h), sequence (Q86UE8 whole entry): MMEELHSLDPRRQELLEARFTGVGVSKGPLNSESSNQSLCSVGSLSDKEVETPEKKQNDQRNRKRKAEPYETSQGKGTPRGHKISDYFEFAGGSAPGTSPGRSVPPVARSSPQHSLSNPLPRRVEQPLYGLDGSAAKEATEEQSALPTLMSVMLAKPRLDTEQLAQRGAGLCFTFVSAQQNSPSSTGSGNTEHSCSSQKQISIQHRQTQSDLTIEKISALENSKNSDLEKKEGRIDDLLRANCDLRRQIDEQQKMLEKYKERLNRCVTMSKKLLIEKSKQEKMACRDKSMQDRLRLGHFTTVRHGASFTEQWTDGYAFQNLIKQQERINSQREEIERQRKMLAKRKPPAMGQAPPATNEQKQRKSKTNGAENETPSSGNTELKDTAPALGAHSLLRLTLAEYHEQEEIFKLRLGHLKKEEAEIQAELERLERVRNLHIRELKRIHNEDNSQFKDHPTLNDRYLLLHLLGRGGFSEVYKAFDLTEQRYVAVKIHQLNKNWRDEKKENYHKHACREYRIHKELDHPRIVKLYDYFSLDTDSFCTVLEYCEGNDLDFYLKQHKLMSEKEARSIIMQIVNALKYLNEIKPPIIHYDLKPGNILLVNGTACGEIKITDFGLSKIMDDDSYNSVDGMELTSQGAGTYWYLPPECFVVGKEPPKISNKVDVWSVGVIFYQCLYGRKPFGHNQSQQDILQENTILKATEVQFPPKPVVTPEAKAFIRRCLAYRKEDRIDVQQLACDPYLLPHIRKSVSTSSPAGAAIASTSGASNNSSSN
WNK2(h), sequence (Q9Y3S1 whole entry): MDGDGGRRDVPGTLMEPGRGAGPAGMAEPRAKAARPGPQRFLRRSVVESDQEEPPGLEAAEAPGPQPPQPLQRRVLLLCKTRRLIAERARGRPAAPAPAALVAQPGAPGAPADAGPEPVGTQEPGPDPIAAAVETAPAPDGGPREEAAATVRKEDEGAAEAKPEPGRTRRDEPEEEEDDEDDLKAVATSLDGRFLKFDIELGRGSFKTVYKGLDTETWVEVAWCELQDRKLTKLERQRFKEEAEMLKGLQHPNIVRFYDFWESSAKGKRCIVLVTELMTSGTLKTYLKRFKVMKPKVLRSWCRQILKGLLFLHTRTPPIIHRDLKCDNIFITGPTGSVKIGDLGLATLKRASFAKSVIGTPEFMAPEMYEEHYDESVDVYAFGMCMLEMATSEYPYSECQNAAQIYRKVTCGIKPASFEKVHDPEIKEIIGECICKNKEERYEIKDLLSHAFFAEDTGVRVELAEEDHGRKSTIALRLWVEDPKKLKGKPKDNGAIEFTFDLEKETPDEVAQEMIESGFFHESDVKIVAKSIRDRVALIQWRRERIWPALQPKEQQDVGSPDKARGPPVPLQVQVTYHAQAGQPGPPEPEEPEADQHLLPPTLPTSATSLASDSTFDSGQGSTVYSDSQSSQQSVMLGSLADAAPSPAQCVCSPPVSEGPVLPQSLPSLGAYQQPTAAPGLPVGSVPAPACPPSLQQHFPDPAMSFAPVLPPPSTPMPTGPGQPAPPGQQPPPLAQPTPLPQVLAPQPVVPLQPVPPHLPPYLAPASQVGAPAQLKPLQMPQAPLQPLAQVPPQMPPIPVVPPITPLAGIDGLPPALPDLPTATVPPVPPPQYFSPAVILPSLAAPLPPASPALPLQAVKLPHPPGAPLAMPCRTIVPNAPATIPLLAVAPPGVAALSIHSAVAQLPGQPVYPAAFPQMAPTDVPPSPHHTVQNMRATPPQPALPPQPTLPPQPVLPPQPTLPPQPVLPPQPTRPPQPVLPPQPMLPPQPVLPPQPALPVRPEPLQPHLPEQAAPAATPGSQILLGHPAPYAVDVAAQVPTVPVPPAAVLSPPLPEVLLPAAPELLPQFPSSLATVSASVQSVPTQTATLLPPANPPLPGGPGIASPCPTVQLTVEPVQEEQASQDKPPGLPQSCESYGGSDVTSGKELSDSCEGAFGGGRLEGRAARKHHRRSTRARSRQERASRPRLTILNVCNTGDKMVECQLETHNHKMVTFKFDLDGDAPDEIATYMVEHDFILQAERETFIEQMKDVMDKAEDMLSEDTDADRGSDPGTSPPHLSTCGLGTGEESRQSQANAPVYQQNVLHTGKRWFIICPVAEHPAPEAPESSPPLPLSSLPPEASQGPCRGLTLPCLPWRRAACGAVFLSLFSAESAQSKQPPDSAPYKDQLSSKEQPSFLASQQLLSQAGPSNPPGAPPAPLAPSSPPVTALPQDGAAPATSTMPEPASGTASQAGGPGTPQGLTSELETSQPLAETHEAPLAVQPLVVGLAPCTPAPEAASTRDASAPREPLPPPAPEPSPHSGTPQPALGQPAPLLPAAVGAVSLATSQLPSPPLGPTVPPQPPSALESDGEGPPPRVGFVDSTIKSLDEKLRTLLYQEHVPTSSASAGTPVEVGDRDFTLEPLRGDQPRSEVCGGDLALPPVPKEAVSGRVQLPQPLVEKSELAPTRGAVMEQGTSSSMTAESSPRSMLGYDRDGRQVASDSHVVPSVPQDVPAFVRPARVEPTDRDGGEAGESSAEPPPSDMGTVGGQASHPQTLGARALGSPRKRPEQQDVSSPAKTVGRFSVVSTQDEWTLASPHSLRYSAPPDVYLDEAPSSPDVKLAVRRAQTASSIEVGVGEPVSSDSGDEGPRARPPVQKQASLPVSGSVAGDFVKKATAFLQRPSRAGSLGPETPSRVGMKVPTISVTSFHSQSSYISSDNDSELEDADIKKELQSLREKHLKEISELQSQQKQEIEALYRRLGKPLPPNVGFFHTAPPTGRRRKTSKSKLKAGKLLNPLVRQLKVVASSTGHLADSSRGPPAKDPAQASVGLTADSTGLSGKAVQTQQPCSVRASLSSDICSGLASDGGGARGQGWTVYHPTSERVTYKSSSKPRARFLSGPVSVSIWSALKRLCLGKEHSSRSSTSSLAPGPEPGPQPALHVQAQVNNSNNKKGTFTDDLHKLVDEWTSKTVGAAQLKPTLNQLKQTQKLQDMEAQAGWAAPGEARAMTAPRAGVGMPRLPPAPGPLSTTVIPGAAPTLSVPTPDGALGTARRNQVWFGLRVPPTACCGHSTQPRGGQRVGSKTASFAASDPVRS
T2 sequence (Q15418 whole entry): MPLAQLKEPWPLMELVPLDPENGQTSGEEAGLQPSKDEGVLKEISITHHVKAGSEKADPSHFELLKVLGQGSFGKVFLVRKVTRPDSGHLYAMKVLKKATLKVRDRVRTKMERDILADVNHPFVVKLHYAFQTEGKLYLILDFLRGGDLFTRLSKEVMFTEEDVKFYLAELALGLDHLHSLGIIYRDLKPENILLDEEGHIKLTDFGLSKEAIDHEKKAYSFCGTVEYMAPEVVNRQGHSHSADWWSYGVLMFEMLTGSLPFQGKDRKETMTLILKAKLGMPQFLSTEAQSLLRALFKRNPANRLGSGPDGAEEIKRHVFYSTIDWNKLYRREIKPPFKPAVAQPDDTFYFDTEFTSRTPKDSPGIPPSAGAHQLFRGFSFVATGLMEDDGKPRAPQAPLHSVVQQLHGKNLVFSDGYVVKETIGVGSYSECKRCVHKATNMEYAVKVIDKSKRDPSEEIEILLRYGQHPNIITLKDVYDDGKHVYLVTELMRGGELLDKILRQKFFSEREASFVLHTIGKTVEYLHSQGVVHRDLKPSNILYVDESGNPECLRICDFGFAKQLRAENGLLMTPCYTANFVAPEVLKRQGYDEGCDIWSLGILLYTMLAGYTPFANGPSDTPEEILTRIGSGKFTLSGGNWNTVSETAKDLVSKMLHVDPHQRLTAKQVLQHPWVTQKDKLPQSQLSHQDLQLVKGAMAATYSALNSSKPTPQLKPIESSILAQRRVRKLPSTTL

Sequence	SAPK3(h) % activity (SAPK3(h))	FGFR1(h) % activity (FGFR1(h))	Rsk1(h) % activity (Rsk1(h))	SGK3(h) % activity (SGK3(h))	WNK2(h) % activity (WNK2(h))	ULK2(h) % activity (ULK2(h))	MARK1(h) % activity (MARK1(h))	TLK2(h) % activity (TLK2(h))
FAKLAARLYRKALARQLGVAA [MMI-0300]	84%	55%	46%	10%	64%	122%	132%	–
KAFAKLAARLYRKALARQLGVAA [MMI-0400]	79%	59%	54%	8%	54%	131%	120%	151%
HRRIKAWLKKIKALARQLGVAA (Mammalian) [MMI-0500]	24%	18%	34%	−3%	8%	124%	110%	133%
YARAAARQARAKALNRQLGVA (Mammalian) [MMI-0200]	97%	97%	–	58%	94%	132%	–	129%
